Experimental data: article PMC11662687, “Molecular basis of the phosphorothioation-sensing antiphage defense system IscS–DndBCDE–DndI” (Nucleic Acids Research, 2024)

What was measured:
DndI [1] = biological target: T1, DndI (Salmonella enterica, UniProt E2D680); parameters: gene A6E75_01280; conditions: r3.1 buffer, 10 mM MgCl2, pH 7.9, 37 °C; without or with phosphorothioate pUC19 DNA
DndI [2] = biological target: T1, DndI; assay: nucleoside triphosphatase assay; type: biochemical; parameters: gene A6E75_01280; full length (residues 1-596); homodimer in crystal; 1,788 bp dndI fragment cloned for FRET construct, but ORF printed elsewhere as 1,971 bp; conditions: r3.1 buffer, 10 mM MgCl2, pH 7.9, 37 °C; without or with phosphorothioate pUC19 DNA buffer presumed
DndI R87A = DndI R87A (Salmonella enterica serovar Cerro 87, UniProt E2D680 1-596, R87A); assay: EMSA; conditions: protein: recombinant; tags: His (pET28a); blunt
DndI CTD = biological target: T2, DndI CTD (Salmonella enterica serovar Cerro 87, UniProt E2D680 239-596); assay: EMSA; EMSA: 100 nM 70 bp DNA, 10 uL, NEB r3.1 buffer (composition and pH not given), 4 C, 1 h, 6% polyacrylamide gel; conditions: protein: recombinant; tags: His (pET28a); blunt
T2 sequence: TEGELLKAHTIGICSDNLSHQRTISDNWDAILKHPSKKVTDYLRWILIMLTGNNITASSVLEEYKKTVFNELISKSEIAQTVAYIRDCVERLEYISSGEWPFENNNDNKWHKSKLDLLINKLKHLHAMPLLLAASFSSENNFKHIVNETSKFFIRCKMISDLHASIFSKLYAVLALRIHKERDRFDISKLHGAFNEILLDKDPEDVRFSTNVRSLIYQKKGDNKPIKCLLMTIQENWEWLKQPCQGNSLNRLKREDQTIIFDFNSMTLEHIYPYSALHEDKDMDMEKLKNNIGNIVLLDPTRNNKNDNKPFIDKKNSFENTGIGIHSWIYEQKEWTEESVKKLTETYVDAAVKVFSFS

DndI [3] = biological target: T3, DndI (Salmonella enterica serovar Cerro 87, UniProt E2D680 1-596); assay: as above; conditions: protein: recombinant; tags: His (pET28a); chain copies: 2; blunt
T3 sequence: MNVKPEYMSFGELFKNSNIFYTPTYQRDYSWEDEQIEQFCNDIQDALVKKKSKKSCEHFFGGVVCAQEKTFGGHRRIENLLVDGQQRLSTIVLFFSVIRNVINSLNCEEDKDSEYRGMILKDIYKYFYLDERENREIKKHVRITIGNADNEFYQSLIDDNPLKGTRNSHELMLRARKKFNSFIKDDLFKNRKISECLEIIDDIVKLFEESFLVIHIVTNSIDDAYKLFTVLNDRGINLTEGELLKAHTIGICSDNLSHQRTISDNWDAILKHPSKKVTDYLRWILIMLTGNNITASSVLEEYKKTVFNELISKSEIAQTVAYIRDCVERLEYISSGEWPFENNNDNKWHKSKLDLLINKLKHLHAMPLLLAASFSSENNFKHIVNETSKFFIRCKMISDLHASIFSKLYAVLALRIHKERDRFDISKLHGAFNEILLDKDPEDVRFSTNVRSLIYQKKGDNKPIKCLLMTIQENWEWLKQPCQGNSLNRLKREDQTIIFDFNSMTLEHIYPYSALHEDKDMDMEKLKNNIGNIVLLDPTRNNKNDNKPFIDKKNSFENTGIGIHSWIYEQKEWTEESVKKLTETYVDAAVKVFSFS

In the case of `Nc1ncnc2c1ncn2[C@@H]1O[C@H](COP(=O)(O)OP(=O)(O)OP(=O)(O)O)[C@@H](O)[C@H]1O` [ATP], the “malachite green phosphate release” value (DndI [1]) is reported as “DndI exhibited an intrinsic ATPase activity”.

`Nc1nc2c(ncn2[C@@H]2O[C@H](COP(=O)(O)OP(=O)(O)OP(=O)(O)O)[C@@H](O)[C@H]2O)c(=O)[nH]1` [GTP] was tested, and the nucleoside triphosphatase assay (DndI [2]) was “DndI demonstrated weak hydrolytic capabilities with regard to GTP, CTP and UTP”.

B1: 70 bp GAAC/GTTC EMSA DNA (PT-free) (dsDNA)
DNA 1: GCTGCAACAGGATGCCAATAAGACCAAAAAAACCAGCCAGCAAGCAGAGAACGACGAGAGCTGGCAATCT
DNA 2: AGATTGCCAGCTCTCGTCGTTCTCTGCTTGCTGGCTGGTTTTTTTGGTCTTATTGGCATCCTGTTGCAGC
B1 was tested, and the Kd (DndI R87A) was 3.3 µM, the Kd (DndI CTD) was 0.66 µM and the Kd (DndI [3]) was 9.31 µM.
